Experimental data published in US20040072301A1 (VAN ANDEL RESEARCH INSTITUTE, published 2004).
Numbering of substitutions follows the chain as printed. Names may count otherwise.

B1: GST fusion of mDia2 GBD (amino acids 101-216) (other)
chain: VLKLFEKMMEDMNLNEDKKAPLREKDFGIKKEMVMQYINTASKTGSLRSSRQISPQEFLHELKMGYTDERLFTYLESLRVSLTSHPVSWVQSFGHEGLGLLLDILEKLINGQIQEK
notes: not shown: glutathione-S-transferase tag of pGEX-KG
B2: mDia2 FH1 (amino acids 521-630), yeast two-hybrid Gal4 fusion (other, not shown: small tags and cut ends)
chain: AELQAFKSQFGALPPGTKIPLQPSVEGEAGPSALPPAPPALSGGVPPPPPPPPPPPPPLPGMPMPFGGPVPPPPPLGFLGGQSSIPLNLPFGLKPKKEFKPEISMRRLNW
B3: GST fusion of mDia2 FH1 (amino acids 521-630) (other)
chain: B2 chain
notes: as for B1
B4: GST-DAD K1059E/R1060E (other)
chain: MKTEGDETGVMDSLLEALQSGAAFRDRREETPKLKDIRQSLSPMSQRPVLKVCNHENQKMQLTEGSRPHHSINCNSTRTPVAKELNYNLDTHASTGRIKAVEKEACNAESNKKKEMELLGSVAKSESVPEVEALLARLRAL
notes: not shown: Glutathione-S-transferase carrier (pGEX-KG) and its linker at the N end
B5: mDia2 DAD M1041A, yeast two-hybrid Gal4 fusion (other, not shown: small tags and cut ends)
chain: B4 chain with M11A, E29K, E30R
B6: mDia2 DAD L1048A, yeast two-hybrid Gal4 fusion (other, not shown: small tags and cut ends)
chain: B4 chain with L18A, E29K, E30R
B7: GST-DAD R1057E/R1058E (other)
chain: B4 chain with R27E, R28E, E29K, E30R
notes: as for B4
B8: mDia2 DAD L1044A, yeast two-hybrid Gal4 fusion (other, not shown: small tags and cut ends)
chain: B4 chain with L14A, E29K, E30R
B9: GST fusion of mDia2 FH2 (amino acids 801-910) (other)
chain: AVSTACEEIKKSKGFSKLLELVLLMGNYMNAGSRNAQTFGFDLSSLCKLKDTKSADQKTTLLHFLVDVCEEKHADILHFVDDLAHLDKASRVSVEMLEKNVKQMGRQLQQ
notes: as for B1
B10: mDia2 FH2 (amino acids 801-910), yeast two-hybrid Gal4 fusion (other, not shown: small tags and cut ends)
chain: B9 chain

How the values were obtained:
[1] = molecular target: T1, Arp2/3 complex from NIH 3T3 cell lysates (UniProt P61161 1-394; Q99JY9 2-418; Q9WV32 1-372; Q9CVB6 1-300; Q9JM76 2-178; P59999 …); experiment: GST pull-down from NIH 3T3 cell extracts, immunoblot
Method: (§1) Recombinant protein purification, in vitro GST-‘pull downs’ and two-hybrid assays. Two-hybrid assays and in vitro translation/GST-pull downs were conducted as previously described (Tominaga et al., supra; Sahai, E. et al., Embo J 17, 1350-61 (1998)). […] Beads were rinsed three times with PBS 1×supplemented with 0.1 μg/μl of BSA and were analyzed by SDS-PAGE and immunoblotted with purified antibodies recognising either Arp3, p34, or actin. For pull-downs from cell extracts, NIH 3T3 cells were lysed and extracted as per (Machesky, L. M. et al., Curr Biol 8, 1347-56 (1998)), and incubated with purified GST-fusion proteins bound to glutathione beads before extensive washing, separation by SDS-PAGE, transfer, and immunoblotting.
After incubation, the complexes were washed extensively and the resulting protein complexes were separated by SDS-PAGE, transferred to membranes, and analyzed by Western blots using antibodies directed to actin, Arp3 and p34 Arc (Welch, M. D. et al., Nature 385, 265-9 (1997)).

[2] = molecular target: T2, mDia2 DAD (amino acids 1031-1171), yeast two-hybrid Gal4 fusion (mouse, UniProt Q9Z207 1031-1171); experiment: yeast two-hybrid, HIS reporter growth on 3-aminotriazole
T2 construct: Two-hybrid construct; also called DRF-autoregulatory domain; Dia-autoregulatory domain
Method: Yeast reporter strain HF7c was transformed with the indicated ‘bait’ (Trp⁻) and ‘prey’ (Leu⁻) plasmids before restreaking on selective plates (His) with increasing concentrations 3-aminotriazole (0, 2, 4, 8, 16, 32, and 64 mM) that selects for correlating expression of the HIS-reporter gene. The indicated numbers correspond to the highest concentration of 3-AT on which there was growth after 3 days. […] The mDia2 plasmid encodes amino acids 47-800.
(§2) Two-hybrid assays and in vitro translation/GST-pull downs were conducted as previously described (Kikyo et al., supra; Hill, C. S. et al., supra). In short, the indicated ‘bait’ proteins were generated by subcloning the indicated cDNAs into pGBT9 Gal4 DNA binding domain plasmid; ‘prey’ were Gal4 activation domain fusion proteins generated in either pGAD 10 or pSE1107. HF7c (Clontech) reporter yeast strain were co-transformed with the indicated plasmids and selected on appropriate plates for bait and prey auxotrophic markers, then restreaked onto His-plate to select for Gal4 regulated HIS reporter expression. Levels of reporter activity were monitored by replicate streaking onto Trp/Leu/His-plates with increasing concentrations (0-64 mM) of 3-aminotriazole.

[3] = molecular target: T1, Arp2/3 complex from NIH 3T3 cell lysates; experiment: GST pull-down from NIH 3T3 cell lysates, immunoblot with anti-p34 Arc
Method: 15 μg of the indicated fusion protein was indubated with lysates as in FIGS. 7a-7c. Bound material was detected after extensive washing and immunoblotting with anti-p34 Arc.
as §1

[4] = molecular target: mDia2 (amino acids 47-800), yeast two-hybrid Gal4 fusion (mouse, UniProt Q9Z207 47-800); experiment: yeast two-hybrid
Method: as §2
The mutants were tested for binding by two-hybrid analysis and were then expressed in cells.

Chain of mDia2 (amino acids 47-800), yeast two-hybrid Gal4 fusion (Q9Z207 47-800 limits assumed): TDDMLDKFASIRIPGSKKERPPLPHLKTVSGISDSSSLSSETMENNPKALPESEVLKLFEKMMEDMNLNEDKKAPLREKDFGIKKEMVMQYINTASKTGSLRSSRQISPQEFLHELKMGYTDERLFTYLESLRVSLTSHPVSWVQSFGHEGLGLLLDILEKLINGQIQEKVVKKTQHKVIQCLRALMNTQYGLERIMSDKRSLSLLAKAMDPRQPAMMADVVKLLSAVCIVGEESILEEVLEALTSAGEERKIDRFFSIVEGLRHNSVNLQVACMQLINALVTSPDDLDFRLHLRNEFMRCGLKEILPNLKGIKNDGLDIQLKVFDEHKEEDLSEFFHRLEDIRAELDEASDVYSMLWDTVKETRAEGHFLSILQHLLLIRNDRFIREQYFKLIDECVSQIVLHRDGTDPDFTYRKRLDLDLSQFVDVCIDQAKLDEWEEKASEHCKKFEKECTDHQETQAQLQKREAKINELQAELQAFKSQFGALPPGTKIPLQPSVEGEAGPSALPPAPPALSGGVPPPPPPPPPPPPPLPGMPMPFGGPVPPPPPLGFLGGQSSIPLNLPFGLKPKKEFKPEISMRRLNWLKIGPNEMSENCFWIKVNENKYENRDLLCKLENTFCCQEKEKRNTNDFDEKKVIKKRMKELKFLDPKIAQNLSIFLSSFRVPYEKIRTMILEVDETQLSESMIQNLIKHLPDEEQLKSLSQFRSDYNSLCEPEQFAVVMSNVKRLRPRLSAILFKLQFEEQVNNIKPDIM

Binder | binding result [1] | binding result [4] | also measured
B1 | no binding | – | –
B2 | – | – | binding result [2]: no binding
B3 | no binding | – | –
B4 | – | – | binding result [3]: no binding (tested: 15 ug fusion protein)
B5 | – | no binding | –
B6 | – | no binding | –
B7 | – | – | binding result [3]: no binding (tested: 15 ug fusion protein)
B8 | – | no binding | –
B9 | no binding | – | –
B10 | – | – | binding result [2]: no binding
